Measurements: patent publication US20250082756A1 (Regeneron, published 2025)
Where a chain is given by its changes, count along the chain named.

T1: MUC16-nub ectodomain antigen (human MUC16 membrane proximal domain P13810-P14451 having a myc-myc-his tag) (human)
T1 construct: also called MUC16 ectodomain
T1 chain: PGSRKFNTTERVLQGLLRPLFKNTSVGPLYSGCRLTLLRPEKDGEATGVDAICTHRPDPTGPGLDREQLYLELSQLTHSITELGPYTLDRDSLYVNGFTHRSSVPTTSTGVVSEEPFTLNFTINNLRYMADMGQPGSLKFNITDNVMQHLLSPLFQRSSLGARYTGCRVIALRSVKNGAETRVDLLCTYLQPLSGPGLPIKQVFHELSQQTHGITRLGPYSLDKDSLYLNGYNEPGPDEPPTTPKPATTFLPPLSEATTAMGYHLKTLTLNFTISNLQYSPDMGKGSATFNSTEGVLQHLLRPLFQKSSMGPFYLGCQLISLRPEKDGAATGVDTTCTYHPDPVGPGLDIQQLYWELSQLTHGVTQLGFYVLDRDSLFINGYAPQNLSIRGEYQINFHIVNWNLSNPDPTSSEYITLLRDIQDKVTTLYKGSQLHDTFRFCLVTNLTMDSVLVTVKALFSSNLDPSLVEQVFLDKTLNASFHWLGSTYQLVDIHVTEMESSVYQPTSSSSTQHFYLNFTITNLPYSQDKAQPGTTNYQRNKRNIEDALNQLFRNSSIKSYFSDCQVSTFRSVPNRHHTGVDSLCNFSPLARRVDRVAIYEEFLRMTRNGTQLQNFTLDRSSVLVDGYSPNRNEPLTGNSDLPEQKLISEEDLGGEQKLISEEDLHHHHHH

T2: MUC16 ectodomain stably expressed on engineered RD tumor cells (high, medium or low levels) (human)
T2 chain: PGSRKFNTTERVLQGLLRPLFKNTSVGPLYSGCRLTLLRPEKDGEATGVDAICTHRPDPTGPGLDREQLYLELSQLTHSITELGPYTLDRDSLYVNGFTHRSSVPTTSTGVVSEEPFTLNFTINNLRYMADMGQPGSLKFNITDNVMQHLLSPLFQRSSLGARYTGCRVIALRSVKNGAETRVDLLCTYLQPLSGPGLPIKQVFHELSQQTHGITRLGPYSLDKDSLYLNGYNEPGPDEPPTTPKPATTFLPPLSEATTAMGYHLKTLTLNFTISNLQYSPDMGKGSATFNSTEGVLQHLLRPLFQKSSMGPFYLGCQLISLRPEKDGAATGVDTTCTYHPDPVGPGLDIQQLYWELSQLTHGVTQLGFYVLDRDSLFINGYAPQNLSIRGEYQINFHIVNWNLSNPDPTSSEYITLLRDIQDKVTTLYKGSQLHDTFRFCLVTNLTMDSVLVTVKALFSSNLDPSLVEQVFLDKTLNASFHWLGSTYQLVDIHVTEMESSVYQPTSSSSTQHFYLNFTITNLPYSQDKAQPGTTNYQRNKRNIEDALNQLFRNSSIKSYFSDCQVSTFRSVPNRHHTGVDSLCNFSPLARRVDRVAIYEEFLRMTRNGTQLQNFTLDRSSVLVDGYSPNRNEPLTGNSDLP

B1: Anti-MUC16 7135 (antibody, V domains shown)
VH: EVQLVESGGGLVQAGGSLRLSCAASGFTFSYHEMNWVRQAPGKGLEWVSYIGSRGTTKHYADPVKGRFTISRDNAKNSLYLQMNSLRAEDTAVYYCASEVGSILGYSMDVWGQGTTVTVSS
VL: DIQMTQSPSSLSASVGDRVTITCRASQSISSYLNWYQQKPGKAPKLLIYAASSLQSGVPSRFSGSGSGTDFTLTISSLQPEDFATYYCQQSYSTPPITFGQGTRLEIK
notes: also called BBz) and pBB4001 (7135 L-H
B2: Anti-MUC16 8804 (antibody, V domains shown)
VH: EVQLVESGGGLVQPGRSLRLSCTGSGLTFGDYGMSWVRQAPGKGLEWVGFIRSKGYGGTTEYAASVKGRFTISRDDSKSTAYLQMNSLKTEDTAVYYCTSGGYDSSVHYYYYYYAMDVWGQGTTVTVSS
VL: not shown
notes: also called BBz) and pBB4013 (8804 L-H
B3: Anti-MUC16 8799 (antibody, V domains shown)
VH: EVQLVESGGGLEQPGRSLRLSCTASGFAFGDHTMSWVRQAPGKGLEWVGFIRSRAYGGTTEYAASVKGRFTISRDDSKSIAYLQMDSLKTEDTAVYYCTSGGYDSSLHYYYYYHGMDVWGRGTTVTVSS
VL: EIVLTQSPGTLSLSPGERATLSCRASQSITSSYLAWYQQRPGQAPRLLIYGASSRATGIPDRFSGSGSGTDFTLTISRLEPEDFAVYYCQQYGSSPWTFGQGTKVEIK
notes: also called BBz) and pBB4011 (8799 L-H
B4: Anti-MUC16 8810 (antibody, V domains shown)
VH: EVQLVESGGALVQPGGSLRLSCAASGFTFSSYAMHWVRQAPGKGLEFVSTISYNGGTTYYADSVKGRFTVSRDNSKNTVFLRMGSLRTEDMAVYYCARAAAPWGQGTLVTVSS
VL: B3 VL with G9D, I29V, T30S, S31N, S32R, R40K, Q90H
notes: also called BBz) and pBB4017 (8810 L-H
B5: Anti-MUC16 8808 (antibody, V domains shown)
VH: QVQLVESGGGVVQPGRSLRLSCVASGFTFSNYGIHWVRQAPGKGLEWVAVISDDGSFKFYADSVKGRFTISRDNSKNTLYLQMNSLRVEDSAVYHCAKWQHNWNDGGFDYWGQGTLVTVSS
VL: B3 VL with G9D, I29L, T30S, S32N, Q38R, R40K, A52I
notes: also called BBz) and pBB4015 (8808 L-H
B6: Anti-MUC16 8767 (antibody, V domains shown)
VH: QVQLVESGGGLVKPGGSLRLSCAASGFTFSNYYMSWVRQAPGKGLEWISYISGRGSTIFYADSVKGRITISRDNAKNSLFLQMNSLRAEDTAVYFCVKDRGGYSPYWGQGTLVTVSS
VL: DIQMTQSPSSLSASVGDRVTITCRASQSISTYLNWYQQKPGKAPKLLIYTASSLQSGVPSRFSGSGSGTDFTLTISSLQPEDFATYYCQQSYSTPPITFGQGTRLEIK
notes: also called BBz) and pBB4007 (8767 L-H
B7: Anti-MUC16 8813 (antibody, V domains shown)
VH: QVQLVQSGAEVKKPGASVKVSCKAFGYTLTGYYIHWVRQAPGQGLEWMGWINPNNGGTNYAQKFQGRVTMTRDKSISTAYMELSRLRSDDTAVYYCARSLELLPDGMDVWGQGTTVTVSS
VL: not shown
notes: also called BBz) and pBB4019 (8813 L-H
B8: pBB4015 CAR (8808 L-H; BBz) (other)
chain: EIVLTQSPDTLSLSPGERATLSCRASQSLSSNYLAWYRQKPGQAPRLLIYGISSRATGIPDRFSGSGSGTDFTLTISRLEPEDFAVYYCQQYGSSPWTFGQGTKVEIKGGGGSGGGGSGGGGSQVQLVESGGGVVQPGRSLRLSCVASGFTFSNYGIHWVRQAPGKGLEWVAVISDDGSFKFYADSVKGRFTISRDNSKNTLYLQMNSLRVEDSAVYHCAKWQHNWNDGGFDYWGQGTLVTVSSTTTPAPRPPTPAPTIASQPLSLRPEACRPAAGGAVHTRGLDFACDIYIWAPLAGTCGVLLLSLVITLYCKRGRKKLLYIFKQPFMRPVQTTQEEDGCSCRFPEEEEGGCELRVKFSRSADAPAYQQGQNQLYNELNLGRREEYDVLDKRRGRDPEMGGKPRRKNPQEGLYNELQKDKMAEAYSEIGMKGERRRGKGHDGLYQGLSTATKDTYDALHMQALPPR
B9: Anti-MUC16 8794 (antibody, V domains shown)
VH: QVQLVESGGGLVKPGGSLRLSCAASGFTFRDYSMSWIRQAPGKGLEWVSYVTFFNSAIYYADSVKGRFTISRDNAKNSLYLQMNSLRAEDTAVYYCAREREPIVGGFDYWGQGTLVTVSS
VL: DIQMTQSPSSLSASVGDRVTITCRASQSINSYLNWYQQKPGKAPKLLIYAASSLQGGVPSRFSGGGSGTDFTLTITSLQPEDFATFYCQQSYSSPPITFGQGTRLEIK
notes: also called BBz) and pBB4009 (8794 L-H
B10: Anti-MUC16 8755 (antibody, V domains shown)
VH: EVQLVESGGGLVQPGRSLRLSCAASGFTFNDYAMHWVRQSPGKGLEWVSGIDWNGGSIDYADSVKGRFTISRDTAKNSLYLQMNSLKVEDTALYYCAKDIGHWNYIGGMDVWGQGTTVTVSS
VL: B9 VL with S31I, L46F, G56T, G65S, T76S, Q79E, F86Y, Q90H, S94T
notes: also called BBz) and pBB4005 (8755 L-H
B11: Anti-MUC16 7138 (antibody, V domains shown)
VH: QVQLVQSGAEVKKPGASVKVSCKASGYTFTSSDINWVRQATGQGLEWVGWMNPNYGYTGSARKFQDRVTMTRNTSLSTAYLELHSLRSEDTAVYYCARVTYCSSVTSCFRPFTYWGQGTLVTVSA
VL: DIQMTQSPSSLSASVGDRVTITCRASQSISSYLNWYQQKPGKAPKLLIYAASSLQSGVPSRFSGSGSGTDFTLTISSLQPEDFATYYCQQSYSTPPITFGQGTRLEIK
notes: also called BBz) and pBB4003 (7138 L-H

Legend:
[1] = biological target: T1, MUC16-nub ectodomain antigen (human …); experiment: Binder Kd of Table 3; method and antigen not described
[2] = biological target: T1, MUC16-nub ectodomain antigen (human …); experiment: cell-based or functional assay
[3] = biological target: T2, MUC16 ectodomain stably expressed on …; experiment: cell-based or functional assay

Row | Binder | Kd [1] | also measured
1 | B1 | 10500 pM | –
2 | B2 | 1860 pM | –
3 | B3 | 826 pM | –
4 | B4 | 1120 pM | –
5 | B5 | 277 pM | –
6 | B6 | 1010 pM | –
7 | B7 | 320 pM | –
8 | B8 | – | EC50 (read off the curve); IFNγ release of BB4015 CAR T cells against the coating concentration of MUC16 nub [2]: ~0.05 µg/mL; percent (%) of tumor cell killing, RD low antigen positive tumor cells, 2.5:1 E:T ratio, 72 hours, impedance analyzer [3]: < 60 % cytotoxicity; percent (%) of tumor cell killing, RD medium or high antigen positive tumor cells, all E:T ratios, 72 hours, impedance analyzer [3]: > 70 % cytotoxicity
9 | B9 | 554 pM | –
10 | B10 | 124 pM | –
11 | B11 | 321 pM | –
